# Assay results reported in US20210179716A1 (Pfizer, published 2021).
# Substitutions are numbered along the chain they refer to.
# B1: P1A11_D99E (antibody, V domains shown)
# VH: QVQLVQSGAEVKKPGSSVKVSCKASGYTFTNYAISWVRQAPGQGLEWMGGISPLFGTANYAQKFQGRVTITADESTSTAYMELSSLRSEDTAVYYCAREGGRSSDVGWYVGAMDVWGQGTLVTVSS
# VL: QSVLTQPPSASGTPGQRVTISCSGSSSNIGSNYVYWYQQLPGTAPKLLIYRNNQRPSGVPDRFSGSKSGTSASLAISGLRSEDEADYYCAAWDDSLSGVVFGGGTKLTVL
# notes: Variant of P01A11
# B2: P01A11_Y27G_L54I_G100A_M113L (antibody, V domains shown)
# VH: B1 VH with Y27G, L54I, E99D, G100A, M113L
# VL: not shown
# notes: Variant of P01A11
# B3: P01A11_T30S_N31S_L54I_G100A_W108Y_M113L (antibody, V domains shown)
# VH: B1 VH with T30S, N31S, L54I, E99D, G100A, W108Y, M113L
# VL: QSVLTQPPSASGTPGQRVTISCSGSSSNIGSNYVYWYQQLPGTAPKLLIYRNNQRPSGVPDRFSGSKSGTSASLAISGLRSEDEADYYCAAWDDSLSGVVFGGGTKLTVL
# notes: Variant of P01A11
# B4: P01A11_Y27G_L54I_G100A (antibody, V domains shown)
# VH: B1 VH with Y27G, L54I, E99D, G100A
# VL: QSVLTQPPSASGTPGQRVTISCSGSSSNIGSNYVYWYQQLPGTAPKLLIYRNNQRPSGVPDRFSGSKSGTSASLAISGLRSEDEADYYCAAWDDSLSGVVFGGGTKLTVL
# notes: Variant of P01A11
# B5: P01A11_T30S_N31S_L54I_G100A (antibody, V domains shown)
# VH: B1 VH with T30S, N31S, L54I, E99D, G100A
# VL: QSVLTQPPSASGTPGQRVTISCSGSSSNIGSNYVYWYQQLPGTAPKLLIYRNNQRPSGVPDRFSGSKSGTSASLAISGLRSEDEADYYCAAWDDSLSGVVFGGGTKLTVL
# notes: Variant of P01A11
# B6: P1A11_S52I (antibody, V domains shown)
# VH: B1 VH with S52I, E99D
# VL: not shown
# notes: Variant of P01A11
# B7: P1A11_L54I (antibody, V domains shown)
# VH: B1 VH with L54I, E99D
# VL: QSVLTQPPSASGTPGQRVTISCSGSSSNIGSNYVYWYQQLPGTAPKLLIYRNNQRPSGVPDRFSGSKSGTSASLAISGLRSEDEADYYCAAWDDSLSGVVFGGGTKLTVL
# notes: Variant of P01A11
# B8: P01A11_P53G_D114E (antibody, V domains shown)
# VH: B1 VH with P53G, E99D, D114E
# VL: not shown
# notes: Variant of P01A11
# B9: P01A11_P53G (antibody, V domains shown)
# VH: B1 VH with P53G, E99D
# VL: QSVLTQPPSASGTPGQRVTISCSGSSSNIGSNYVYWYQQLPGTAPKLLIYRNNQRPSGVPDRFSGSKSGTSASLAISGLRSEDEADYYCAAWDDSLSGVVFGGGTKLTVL
# notes: Variant of P01A11
# B10: P01A11_W108A (antibody, V domains shown)
# VH: B1 VH with E99D, W108A
# VL: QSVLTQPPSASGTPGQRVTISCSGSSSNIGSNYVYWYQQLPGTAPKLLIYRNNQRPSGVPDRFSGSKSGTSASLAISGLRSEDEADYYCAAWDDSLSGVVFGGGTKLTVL
# notes: Variant of P01A11
# B11: P1A11_G100S (antibody, V domains shown)
# VH: B1 VH with E99D, G100S
# VL: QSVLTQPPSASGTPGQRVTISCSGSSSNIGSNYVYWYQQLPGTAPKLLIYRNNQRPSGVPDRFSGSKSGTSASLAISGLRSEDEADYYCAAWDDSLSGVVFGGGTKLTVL
# notes: Variant of P01A11
# B12: P01A11_T30S_N31S_L54I_G100A_M113L (antibody, V domains shown)
# VH: B1 VH with T30S, N31S, L54I, E99D, G100A, M113L
# VL: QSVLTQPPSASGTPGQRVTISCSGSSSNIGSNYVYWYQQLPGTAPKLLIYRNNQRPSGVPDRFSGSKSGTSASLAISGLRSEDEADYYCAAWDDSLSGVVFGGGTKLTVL
# notes: Variant of P01A11
# B13: P01A11_L54A_R102A (antibody, V domains shown)
# VH: B1 VH with L54A, E99D, R102A
# VL: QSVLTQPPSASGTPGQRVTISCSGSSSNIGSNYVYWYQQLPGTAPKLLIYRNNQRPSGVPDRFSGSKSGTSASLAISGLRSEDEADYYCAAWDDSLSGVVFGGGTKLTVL
# notes: Variant of P01A11
# B14: P1A11_W108F (antibody, V domains shown)
# VH: B1 VH with E99D, W108F
# VL: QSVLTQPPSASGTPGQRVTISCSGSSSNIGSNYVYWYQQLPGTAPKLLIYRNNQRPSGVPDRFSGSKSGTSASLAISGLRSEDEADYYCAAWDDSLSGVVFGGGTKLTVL
# notes: Variant of P01A11
# B15: P1A11_F55L (antibody, V domains shown)
# VH: B1 VH with F55L, E99D
# VL: not shown
# notes: Variant of P01A11
# B16: P01A11_G100V (antibody, V domains shown)
# VH: B1 VH with E99D, G100V
# VL: not shown
# notes: Variant of P01A11
# B17: P1A11_N31S (antibody, V domains shown)
# VH: B1 VH with N31S, E99D
# VL: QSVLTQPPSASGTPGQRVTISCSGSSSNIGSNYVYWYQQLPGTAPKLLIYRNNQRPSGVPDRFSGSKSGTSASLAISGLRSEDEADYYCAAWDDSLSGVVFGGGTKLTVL
# notes: Variant of P01A11
# B18: P1A11_G100Q (antibody, V domains shown)
# VH: B1 VH with E99D, G100Q
# VL: not shown
# notes: Variant of P01A11
# B19: P1A11_M113L (antibody, V domains shown)
# VH: B1 VH with E99D, M113L
# VL: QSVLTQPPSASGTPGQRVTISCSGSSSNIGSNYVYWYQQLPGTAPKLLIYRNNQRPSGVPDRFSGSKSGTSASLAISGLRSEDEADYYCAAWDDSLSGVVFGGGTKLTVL
# notes: Variant of P01A11
# B20: P01A11_Y27G_L54I_G100A_M113I (antibody, V domains shown)
# VH: B1 VH with Y27G, L54I, E99D, G100A, M113I
# VL: not shown
# notes: Variant of P01A11
# B21: P01A11_P53G_D105E (antibody, V domains shown)
# VH: B1 VH with P53G, E99D, D105E
# VL: not shown
# notes: Variant of P01A11
# B22: P1A11_W108Y (antibody, V domains shown)
# VH: B1 VH with E99D, W108Y
# VL: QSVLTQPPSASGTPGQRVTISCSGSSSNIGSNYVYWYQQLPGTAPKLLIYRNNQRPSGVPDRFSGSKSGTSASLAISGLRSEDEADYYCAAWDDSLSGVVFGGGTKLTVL
# notes: Variant of P01A11
# B23: P01A11_Y27G_N31S_L54I_G100A_M113L (antibody, V domains shown)
# VH: B1 VH with Y27G, N31S, L54I, E99D, G100A, M113L
# VL: not shown
# notes: Variant of P01A11
# B24: P1A11_M113I (antibody, V domains shown)
# VH: B1 VH with E99D, M113I
# VL: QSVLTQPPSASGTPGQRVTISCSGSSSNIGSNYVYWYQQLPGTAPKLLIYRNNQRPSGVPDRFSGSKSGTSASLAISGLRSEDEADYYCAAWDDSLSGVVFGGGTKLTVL
# notes: Variant of P01A11
# B25: P1A11_G100A (antibody, V domains shown)
# VH: B1 VH with E99D, G100A
# VL: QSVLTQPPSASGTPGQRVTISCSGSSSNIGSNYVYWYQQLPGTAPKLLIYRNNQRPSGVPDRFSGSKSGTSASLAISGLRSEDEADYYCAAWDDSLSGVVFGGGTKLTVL
# notes: Variant of P01A11
# B26: P1A11_Y27G (antibody, V domains shown)
# VH: B1 VH with Y27G, E99D
# VL: not shown
# notes: Variant of P01A11
# B27: P1A11_T30S (antibody, V domains shown)
# VH: B1 VH with T30S, E99D
# VL: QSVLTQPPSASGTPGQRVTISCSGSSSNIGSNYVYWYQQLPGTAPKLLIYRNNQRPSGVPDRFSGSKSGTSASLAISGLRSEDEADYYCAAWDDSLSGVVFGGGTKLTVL
# notes: Variant of P01A11
# B28: P01A11_L54A_S104E (antibody, V domains shown)
# VH: B1 VH with L54A, E99D, S104E
# VL: not shown
# notes: Variant of P01A11
# B29: P01A11_L54A_D114E (antibody, V domains shown)
# VH: B1 VH with L54A, E99D, D114E
# VL: not shown
# notes: Variant of P01A11
# B30: P01A11_D105E (antibody, V domains shown)
# VH: B1 VH with E99D, D105E
# VL: not shown
# notes: Variant of P01A11
# B31: P01A11_T30S_N31S_L54I_G100A_M113I (antibody, V domains shown)
# VH: B1 VH with T30S, N31S, L54I, E99D, G100A, M113I
# VL: not shown
# notes: Variant of P01A11
# B32: P06B05_D56E_G57E (antibody, V domains shown)
# VH: EVQLVESGGGLVKPGGSLRLSCAASGFTFSNAWMNWVRQAPGKGLEWVGRIKTKAEEGTTDYAAPVKGRFTISRDDSKNTLYLQMNSLKTEDTAVYYCTTDPGSYWDSVYGGMDYWGQGTLVTVSS
# VL: not shown
# notes: Variant of P06B05
# B33: P06B05_D61A_Y62A (antibody, V domains shown)
# VH: B32 VH with E56D, E57G, D61A, Y62A
# VL: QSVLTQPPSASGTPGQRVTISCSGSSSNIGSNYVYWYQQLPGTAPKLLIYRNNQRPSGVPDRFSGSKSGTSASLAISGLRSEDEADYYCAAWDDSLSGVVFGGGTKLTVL
# notes: Variant of P06B05
# B34: P06B05_S104I (antibody, V domains shown)
# VH: B32 VH with E56D, E57G, S104I
# VL: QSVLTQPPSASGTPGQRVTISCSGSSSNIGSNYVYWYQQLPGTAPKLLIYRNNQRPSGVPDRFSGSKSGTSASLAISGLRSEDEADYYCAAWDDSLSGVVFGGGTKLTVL
# notes: Variant of P06B05
# B35: P06B05_D61Q_Y62E (antibody, V domains shown)
# VH: B32 VH with E56D, E57G, D61Q, Y62E
# VL: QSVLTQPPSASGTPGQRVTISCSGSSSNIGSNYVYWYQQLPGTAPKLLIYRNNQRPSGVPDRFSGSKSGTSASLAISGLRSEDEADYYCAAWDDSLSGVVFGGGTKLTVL
# notes: Variant of P06B05
# B36: P06B05_D107Y (antibody, V domains shown)
# VH: B32 VH with E56D, E57G, D107Y
# VL: not shown
# notes: Variant of P06B05
# B37: P06B05_D61E_Y62E (antibody, V domains shown)
# VH: B32 VH with E56D, E57G, D61E, Y62E
# VL: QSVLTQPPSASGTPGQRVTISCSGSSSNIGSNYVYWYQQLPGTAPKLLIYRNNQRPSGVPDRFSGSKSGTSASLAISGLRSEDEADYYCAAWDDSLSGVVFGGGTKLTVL
# notes: Variant of P06B05
# B38: P06B05_D61Q_Y62S (antibody, V domains shown)
# VH: B32 VH with E56D, E57G, D61Q, Y62S
# VL: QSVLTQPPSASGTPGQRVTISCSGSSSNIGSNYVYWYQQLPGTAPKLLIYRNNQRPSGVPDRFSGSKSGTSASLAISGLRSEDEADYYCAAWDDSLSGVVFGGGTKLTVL
# notes: Variant of P06B05
# B39: P06B05_M113L (antibody, V domains shown)
# VH: B32 VH with E56D, E57G, M113L
# VL: not shown
# notes: Variant of P06B05
# B40: P06B05_D61S_Y62Q (antibody, V domains shown)
# VH: B32 VH with E56D, E57G, D61S, Y62Q
# VL: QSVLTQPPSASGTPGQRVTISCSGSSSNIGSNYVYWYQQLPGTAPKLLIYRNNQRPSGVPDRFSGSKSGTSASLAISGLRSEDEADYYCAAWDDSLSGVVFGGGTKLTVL
# notes: Variant of P06B05
# B41: P06B05_D107S (antibody, V domains shown)
# VH: B32 VH with E56D, E57G, D107S
# VL: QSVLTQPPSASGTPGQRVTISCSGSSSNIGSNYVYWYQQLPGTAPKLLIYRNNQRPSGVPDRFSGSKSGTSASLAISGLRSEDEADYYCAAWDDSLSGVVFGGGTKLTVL
# notes: Variant of P06B05
# B42: P06B05_D61A_Y62S (antibody, V domains shown)
# VH: B32 VH with E56D, E57G, D61A, Y62S
# VL: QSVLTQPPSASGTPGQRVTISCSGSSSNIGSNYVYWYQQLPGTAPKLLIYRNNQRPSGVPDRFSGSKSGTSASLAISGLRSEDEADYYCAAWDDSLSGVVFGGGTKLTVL
# notes: Variant of P06B05
# B43: P06B05_D107L (antibody, V domains shown)
# VH: B32 VH with E56D, E57G, D107L
# VL: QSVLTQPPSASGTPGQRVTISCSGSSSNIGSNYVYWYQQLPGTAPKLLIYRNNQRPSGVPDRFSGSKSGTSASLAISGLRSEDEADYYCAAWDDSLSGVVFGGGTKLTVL
# notes: Variant of P06B05
# B44: P06B05_S104Y (antibody, V domains shown)
# VH: B32 VH with E56D, E57G, S104Y
# VL: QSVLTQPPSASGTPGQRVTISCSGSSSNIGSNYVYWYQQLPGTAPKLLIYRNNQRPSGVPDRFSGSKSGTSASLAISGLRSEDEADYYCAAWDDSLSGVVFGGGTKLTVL
# notes: Variant of P06B05
# B45: P06B05_D61S_Y62S (antibody, V domains shown)
# VH: B32 VH with E56D, E57G, D61S, Y62S
# VL: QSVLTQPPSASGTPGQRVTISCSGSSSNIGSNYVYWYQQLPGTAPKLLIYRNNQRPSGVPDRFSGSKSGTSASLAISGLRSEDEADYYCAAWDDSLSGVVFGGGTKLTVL
# notes: Variant of P06B05
# B46: P06B05_S104A (antibody, V domains shown)
# VH: B32 VH with E56D, E57G, S104A
# VL: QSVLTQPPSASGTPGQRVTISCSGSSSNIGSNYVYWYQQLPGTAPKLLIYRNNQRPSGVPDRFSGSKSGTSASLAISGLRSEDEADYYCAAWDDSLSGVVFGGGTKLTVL
# notes: Variant of P06B05
# B47: P06B05_V109S (antibody, V domains shown)
# VH: B32 VH with E56D, E57G, V109S
# VL: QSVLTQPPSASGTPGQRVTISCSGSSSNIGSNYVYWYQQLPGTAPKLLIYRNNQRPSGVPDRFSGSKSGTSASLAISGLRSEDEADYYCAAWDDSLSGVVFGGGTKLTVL
# notes: Variant of P06B05
# B48: P06B05_G103I (antibody, V domains shown)
# VH: B32 VH with E56D, E57G, G103I
# VL: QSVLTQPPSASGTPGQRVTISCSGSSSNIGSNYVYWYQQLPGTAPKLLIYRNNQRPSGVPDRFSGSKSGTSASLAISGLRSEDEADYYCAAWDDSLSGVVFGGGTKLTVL
# notes: Variant of P06B05
# B49: P06B05_D61S_Y62A (antibody, V domains shown)
# VH: B32 VH with E56D, E57G, D61S, Y62A
# VL: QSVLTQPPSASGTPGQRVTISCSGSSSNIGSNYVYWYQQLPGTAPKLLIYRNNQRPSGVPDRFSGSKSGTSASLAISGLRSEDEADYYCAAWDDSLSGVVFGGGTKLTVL
# notes: Variant of P06B05
# B50: P06B05_D61A_Y62Q (antibody, V domains shown)
# VH: B32 VH with E56D, E57G, D61A, Y62Q
# VL: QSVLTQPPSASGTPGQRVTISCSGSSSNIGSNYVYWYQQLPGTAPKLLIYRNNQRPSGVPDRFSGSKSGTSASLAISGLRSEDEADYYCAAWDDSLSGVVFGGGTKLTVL
# notes: Variant of P06B05
# B51: P06B05_S104H (antibody, V domains shown)
# VH: B32 VH with E56D, E57G, S104H
# VL: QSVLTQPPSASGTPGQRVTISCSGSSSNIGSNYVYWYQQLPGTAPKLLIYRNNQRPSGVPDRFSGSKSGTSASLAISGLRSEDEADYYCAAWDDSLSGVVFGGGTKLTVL
# notes: Variant of P06B05
# B52: P06B05_D61A_Y62E (antibody, V domains shown)
# VH: B32 VH with E56D, E57G, D61A, Y62E
# VL: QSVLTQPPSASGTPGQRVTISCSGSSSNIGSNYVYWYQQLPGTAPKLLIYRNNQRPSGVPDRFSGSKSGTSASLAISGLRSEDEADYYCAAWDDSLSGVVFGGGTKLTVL
# notes: Variant of P06B05
# Molecular target: T1, human CD47 protein (human, UniProt Q08722 19-139, limits assumed)
# T1 construct: Soluble protein used for the KD measurements; construct not described; also called hCD47; CD47 (human)
# Assay: KD; method not stated
# T1 sequence (Q08722 19-139 limits assumed): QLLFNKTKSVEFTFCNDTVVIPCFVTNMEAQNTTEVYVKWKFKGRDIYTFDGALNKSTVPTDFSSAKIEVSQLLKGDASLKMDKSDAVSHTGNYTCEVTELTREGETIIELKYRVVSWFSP
row,Kd [nM],Binder
1,1200,B1
2,154,B2
3,> 1500,B3
4,132,B4
5,97,B5
6,1310,B6
7,0.69,B7
8,300,B8
9,5.6,B9
10,608,B10
11,28,B11
12,106,B12
13,38,B13
14,103,B14
15,2.7,B15
16,> 1500,B16

row,Kd [nM],Binder
1,7,B17
2,> 1500,B18
3,0.86,B19
4,263,B20
5,241,B21
6,25,B22
7,497,B23
8,2.9,B24
9,8.5,B25
10,20,B26
11,1.8,B27
12,19,B28
13,31,B29
14,48,B30
15,75,B31

# Molecular target: T2, cynomolgus CD47 protein (cynomolgus monkey, UniProt A0A2K5X523 19-139)
# T2 construct: also called cyCD47; Cyno CD47
# Assay: KD; method not stated
row,Kd [nM],Binder
1,> 1500,B1
2,198,B2
3,> 1500,B3
4,180,B4
5,138,B5
6,> 1500,B6
7,1.3,B7
8,520,B8
9,7.6,B9
10,773,B10
11,36,B11
12,120,B12
13,45,B13
14,117,B14
15,3.3,B15
16,> 1500,B16

row,Kd [nM],Binder
1,9.3,B17
2,> 1500,B18
3,1.2,B19
4,371,B20
5,351,B21
6,32,B22
7,704,B23
8,3.7,B24
9,11,B25
10,23,B26
11,2.5,B27
12,16,B28
13,46,B29
14,62,B30
15,105,B31

# Molecular target: T3, human PD-L1 protein (human, UniProt Q9NZQ7 19-238)
# T3 construct: Soluble protein used for the KD measurements; construct not described; also called hPD-L1; CD274
# Assay: KD; method not stated
# T3 sequence (Q9NZQ7 19-238 limits assumed): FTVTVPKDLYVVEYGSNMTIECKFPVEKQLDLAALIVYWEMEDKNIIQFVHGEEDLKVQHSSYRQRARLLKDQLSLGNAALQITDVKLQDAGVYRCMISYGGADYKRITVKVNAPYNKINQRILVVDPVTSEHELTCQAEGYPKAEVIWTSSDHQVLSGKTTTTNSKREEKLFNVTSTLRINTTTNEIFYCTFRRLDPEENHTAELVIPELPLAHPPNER
row,Kd [nM],Binder
1,69.7,B32
2,4.01,B33
3,< 0.74,B34
4,5.81,B35
5,3.03,B36
6,9.49,B37
7,5.02,B38
8,6.82,B39
9,5.98,B40
10,23.9,B41
11,5.37,B42
12,90.2,B43
13,9.75,B44
14,6.1,B45
15,3.5,B46
16,76.5,B47
17,8.06,B48
18,6.71,B49
19,5.97,B50
20,7.9,B51
21,3.28,B52

# Molecular target: T4, cynomolgus PD-L1 protein (cynomolgus monkey, UniProt G7PSE7 19-238)
# T4 construct: also called cyPD-L1; Cyno PD-L1
# Assay: KD; method not stated
# T4 sequence (G7PSE7 entry or part of it): as the sequence (Q9NZQ7 19-238 limits assumed) above, with A33T, A34S, S62N, R68Q, Q82R, F173L, T185A, T192I, H215L counted along it
row,Kd [nM],Binder
1,60.6,B32
2,3.67,B33
3,0.99,B34
4,4.43,B35
5,3.23,B36
6,8.39,B37
7,5.54,B38
8,6.55,B39
9,3.73,B40
10,26.3,B41
11,2.75,B42
12,83,B43
13,5.79,B44
14,2.15,B45
15,3.93,B46
16,> 100,B47
17,8.11,B48
18,< 1.19,B49
19,4.96,B50
20,6.11,B51
21,3.17,B52
